{"source": "paper PMC4220974", "about": "“Effect of the L499M mutation of the ascomycetous Botrytis aclada laccase on redox potential and catalytic properties” (Acta Crystallographica Section D: Biological Crystallography, 2014)", "molecules": {"B1": {"name": "BaL (Botrytis aclada laccase) (Botrytis aclada) (protein)", "chain": "SCANSATSRSCWGEYSIDTNWYDVTPTGVTREYWLSVENSTITPDGYTRSAMTFNGTVPGPAIIADWGDNLIIHVTNNLEHNGTSIHWHGIRQLGSLEYDGVPGVTQCPIAPGDTLTYKFQVTQYGTTWYHSHFSLQYGDGLFGPLIINGPATADYDEDVGVIFLQDWAHESVFEIWDTARLGAPPALENTLMNGTNTFDCSASTDPNCVGGGKKFELTFVEGTKYRLRLINVGIDSHFEFAIDNHTLTVIANDLVPIVPYTTDTLLIGIGQRYDVIVEANAAADNYWIRGNWGTTCSTNNEAANATGILRYDSSSIANPTSVGTTPRGTCEDEPVASLVPHLALDVGGYSLVDEQVSSAFTNYFTWTINSSSLLLDWSSPTTLKIFNNETIFPTEYNVVALEQTNANEEWVVYVIEDLTGFGIWHPIHLHGHDFFIVAQETDVFNSDESPAKFNLVNPPRRDVAALPGNGYLAIAFKLDNPGSWLLHCHIAWHASEGLAMQFVESQSSIAVKMTDTAIFEDTCANWNAYTPTQLFAEDDSGI", "notes": "full-length cDNA expressed in secreted form in Pichia pastoris X33; 543 residues; kinetics on glycosylated enzyme"}}, "experiment_in_all_cases": "purified protein", "type_in_all_cases": "biochemical, Botrytis aclada", "key": {"[1]": {"test_system": "CCn1c(=NN=c2sc3cc(S(=O)(=O)O)ccc3n2CC)sc2cc(S(=O)(=O)O)ccc21", "details": "pH 4.0, 100 mM citrate-phosphate, 30 °C, air-saturated, µ and ± signs lost in the table text (header reads M), apparent Km, also measured at pH 3, 5, 6"}, "COc1cccc(OC)c1O": {"test_system": "COc1cccc(OC)c1O", "details": "pH 4.0, 100 mM citrate-phosphate, 30 °C, air-saturated, µ and ± signs lost in the table text (header reads M), apparent Km, also measured at pH 3, 5, 6"}, "purified protein [2]": {"substrate": "CCn1c(=NN=c2sc3cc(S(=O)(=O)O)ccc3n2CC)sc2cc(S(=O)(=O)O)ccc21", "details": "pH 4.0, 100 mM citrate-phosphate, 30 °C, air-saturated, µ and ± signs lost in the table text (header reads M), apparent Km, also measured at pH 3, 5, 6", "remark": "listed apart in the source"}, "purified protein [3]": {"substrate": "COc1cccc(OC)c1O", "details": "pH 4.0, 100 mM citrate-phosphate, 30 °C, air-saturated, apparent Km, also measured at pH 3, 5, 6"}}}
{"molecule": "BaL (Botrytis aclada laccase) (Botrytis aclada; L536M)", "values": [{"measurement": "Km", "setting": "[1]", "value": "19.3 ± 1.0", "unit": "µM"}, {"measurement": "Km", "setting": "COc1cccc(OC)c1O", "value": "80.8 ± 2.7", "unit": "µM"}]}
{"molecule": "B1", "values": [{"measurement": "Km", "setting": "purified protein [2]", "value": "14.0 ± 1.0", "unit": "µM"}, {"measurement": "Km", "setting": "purified protein [3]", "value": "8.3 ± 0.7", "unit": "µM"}]}
